Publication PMC13631358
pKd: −log10 of the molar value.

Target: tapasin-ERp57 heterodimer (ER-lumenal domain of tapasin, full-length ERp57 Cys36Ala), disulfide-linked (human) (UniProt P30101)
Test: ITC; Crt or Crt^Δacidic (titrant, 500 µM) into tapasin-ERp57 heterodimer (analyte, 19 µM; no PaSta1 Fab named); 25 °C; 50 mM HEPES-NaOH pH 7.4, 150 mM NaCl, 1 mM CaCl2

- pKd: 5.38
Substance: calreticulin (amino acids 18-417) (from UniProt P27797 18-417) (natural protein)
